Results taken from US20220024983A1, “BICYCLIC PEPTIDE LIGANDS SPECIFIC FOR IL-17” (BicycleRD Limited, priority 2018, published 2022).
*1 amine or outer side, *2 acyl side, *3 side chain or, on linkers, in order; H or OH if unused. Bridges are numbered along the chain shown (N, C = ends). Where no end group is shown, it is not given here. TBMB = c1c(C[*:1])cc(C[*:3])cc1C[*:2]

Experiments:
[1] = molecular target: T1, human IL-17E (human, UniProt Q9H293 33-177); assay: binding assay, method analogous to WO 2011/141823; column head prints hIL17-F, read as IL-17E by paragraph 30
T1 construct: also called hIL17-E; IL-25
T1 sequence (looked up): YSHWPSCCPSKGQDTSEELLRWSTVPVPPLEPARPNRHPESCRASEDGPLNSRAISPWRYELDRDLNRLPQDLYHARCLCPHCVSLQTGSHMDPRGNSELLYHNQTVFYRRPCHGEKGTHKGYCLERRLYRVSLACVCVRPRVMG

[2] = molecular target: T2, human IL-17A dimer (human, UniProt Q16552 24-155); assay: FP competition, competitor: tracer BCY2311; Ki Mean column, n=6
T2 construct: also called hIL17-A
T2 sequence (looked up): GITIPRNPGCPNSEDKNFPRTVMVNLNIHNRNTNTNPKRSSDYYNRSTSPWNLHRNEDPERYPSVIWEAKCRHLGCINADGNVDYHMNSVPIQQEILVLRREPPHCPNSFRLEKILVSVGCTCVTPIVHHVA
Procedure: (§1) Affinity determination by fluorescence polarization (FP) competition. […] Peptides were diluted to an appropriate concentration in assay buffer (PBS+0.01% Tween20, adjusted to pH7.4 using NaOH (1M)) with a maximum of 1% DMSO, then serially diluted 1 in 2 into assay buffer. […] The PHERAstar FS was set at 25° C. with 200 flashes per well and a positioning delay of 0.1 second, with each well measured at 5 to 10 minute intervals for 60 minutes. […] Data analysis was performed in Dotmatics where mP values were fit to the Cheng Prusoff equation in order to generate a Ki value.

[3] = molecular target: T2, human IL-17A dimer; assay: FP competition, competitor: tracer BCY2311
Procedure: as §1

[4] = molecular target: T2, human IL-17A dimer; assay: FP competition, competitor: tracer BCY2315
Procedure: as §1

[5] = molecular target: T2, human IL-17A dimer; assay: FP competition, competitor: tracer BCY2315; Ki Mean column, n=2
Procedure: as §1

[6] = molecular target: T2, human IL-17A dimer; assay: binding assay, method analogous to WO 2011/141823
[7] = molecular target: T3, mouse IL-17A dimer (mouse, UniProt Q62386 26-158); assay: binding assay, method analogous to WO 2011/141823
T3 sequence (looked up): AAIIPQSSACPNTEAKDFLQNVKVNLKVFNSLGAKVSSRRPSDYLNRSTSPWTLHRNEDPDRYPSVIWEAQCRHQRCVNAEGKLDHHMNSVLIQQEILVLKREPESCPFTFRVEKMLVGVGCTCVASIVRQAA

[8] = molecular target: T2, human IL-17A dimer; assay: binding assay, method analogous to WO 2011/141823; Mean column, n=2
[9] = molecular target: T2, human IL-17A dimer; assay: binding assay, method analogous to WO 2011/141823; remark: listed apart in the source

## ACGYDYYCALYDICA (linker 2-8-14 via TBMB, Bicyclic peptide) [BCY2240 [A-(SEQ ID NO: 56)-A]]
[1]
  Kd: 198 nM

## Ac-CYEAELCAFLGLC (linker 1-7-13 via TBMB, Bicyclic peptide) [BCY2240 [Ac-(SEQ ID NO: 36)]]
[2]
  Ki: 25.7 nM
[3]
  Ki: 26.9 nM

## CYEDELCEFLALC (linker 1-7-13 via TBMB, Bicyclic peptide) [BCY2249]
[4]
  Ki: 65 nM
[5]
  Ki: 65 nM

B1: BCY2310 (peptide)
peptide: ACPQDLELCTFLFGDCAXXXXXXK
modifications: Ci, Cii and Ciii cyclised with TBMB; six sarcosines (written X) after the C-terminal Ala; fluorescein (Fl) on the C-terminal Lys
[6]
  Kd: 26.6 nM
[7]
  Kd: 110 nM
[8]
  Kd: 26.6 nM

## CPENELYCFLSSQQC (linker 1-8-15 via TBMB, Bicyclic peptide) [BCY2232]
[9]
  Kd: 398 nM
